# Read-outs that look alike come from different tables or passages of the source.
# B1: A0194020A06: monovalent anti-Kv1.3 Nanobody, family 12 (protein)
# VHH: EVQLVESGGGLVQAGGSLGLSCSASGLLFSRNSAGWYRQAPGKRREFVARIRMGGSINYADSVKGRFTVSRDNAKNMMYLQMNDLKPEDTAVYFCSGWREGFYEYWGQGTLVTVSS
# modifications: Nanobody sequence
# B2: A0194016B04: monovalent anti-Kv1.3 Nanobody, family 12 (protein)
# VHH: EVQLVESGGGLVQAGGSLRLSCSASGLLFSVNSAGWYRQAPGKQRDFVARIRSGGSTNYADSVKGRFTISRDKATNTLYLQMNNLKPEDTAVYYCSSWRTEAYEYWGRGTLVTVSS
# modifications: Nanobody sequence
# Columns and labels:
# [1] = biological target: T1, human Kv1.3 (Homo sapiens, UniProt P22001); assay: IonFlux automated patch clamp, Kv1.3-expressing HEK293H cells; assay type: cell-based; conditions: monovalent Nanobodies, concentration at which Kv1.3 current is 50%
# T1 construct: cell lines stably expressing the full length human Kv1.3 channel
# T1 sequence (P22001 whole entry): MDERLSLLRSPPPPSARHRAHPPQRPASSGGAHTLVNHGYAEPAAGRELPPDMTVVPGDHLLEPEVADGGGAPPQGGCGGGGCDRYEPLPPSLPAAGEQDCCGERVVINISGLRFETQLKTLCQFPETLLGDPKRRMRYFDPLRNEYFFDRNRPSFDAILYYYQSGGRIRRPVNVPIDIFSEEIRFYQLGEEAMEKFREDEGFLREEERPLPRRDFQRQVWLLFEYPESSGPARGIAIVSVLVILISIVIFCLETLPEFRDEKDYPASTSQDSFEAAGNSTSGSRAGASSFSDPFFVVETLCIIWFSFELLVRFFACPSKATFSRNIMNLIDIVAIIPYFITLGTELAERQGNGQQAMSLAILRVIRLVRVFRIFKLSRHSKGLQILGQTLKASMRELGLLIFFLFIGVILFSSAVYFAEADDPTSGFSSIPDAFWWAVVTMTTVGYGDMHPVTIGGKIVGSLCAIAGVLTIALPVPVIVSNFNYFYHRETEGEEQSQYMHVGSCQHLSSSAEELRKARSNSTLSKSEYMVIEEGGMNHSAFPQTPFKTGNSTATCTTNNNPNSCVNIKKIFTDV
# From the text: Periplasmic extracts were electrophysiologically screened for inhibitory effects on the voltage-gated potassium channel Kv1.3 on the IonFlux™ automated Patch Clamp using Kv1.3-expressing HEK293H cells. The complete procedure for evaluating the modulatory effect of periplasmic extracts on human Kv1.3 via electrophysiological recordings is given below.
# The IonFlux™ (Molecular Devices) is an automated patch clamp system with integrated Well Plate Microfluidic™ Technology, temperature control and continuous perfusion and voltage clamp. The IonFlux™ 16 has sixteen parallel amplifiers and uses 96-well IonFlux plates conform to the Society for Biomolecular Sciences. This system allows both population and single cell patch clamp.
# Extracellular solution contained (in mM): 132 NaCl, 5.4 KCl, 1.8 CaCl2, 0.8 MgCl2, 10 HEPES, 5 glucose (pH 7.2 with NaOH, and 285-290 mOsmolar). Intracellular solution contained (in mM): 40 KF, 100 KCl, 2 MgCl2, 10 HEPES, 5 EGTA (pH 7.45 with CsOH, and 300-315 mOsmolar). These solutions were freshly made, stocked for no longer than a month at 4° C. and filtered prior to use. […]
# HEK293H cells stably expressing the human Kv1.3 channel were generated in house. […] Cells were counted (Casy T T, Roche), suspended at 1 million cells/ml, transferred to a new 50 ml conical CELLSTAR® tube and gently shaken at RT for approximately 20 min. […]
# [2] = tested on: CCR7−CD45RA− T cells; assay type: cell-based, human; conditions: for IC50: monovalent Nanobodies
# From the text: The purified anti-Kv1.3 Nanobodies were characterized in a T Cell-activation assay. Human T Cells were first collected from Buffy Coat blood (from healthy volunteers, Bloodbank Gent) using RosetteSep (StemCell Technologies, #15061) followed by an enrichment on Ficoll-Paque™ PLUS (GE Healthcare #17-1440-03). CCR7−CD45RA− T cells were isolated through negative selection using biotinylated antibodies against CD45RA (BD Bioscience #624008) and CCR7 (BD Bioscence #624009) in addition to the Dynabeads Biotin Binder (Invitrogen #110.47). The purity of the population was afterwards checked with anti-CD3 (eBioscience #12-0037-73); anti-CD8 (BD Bioscience #345775); anti-CD4 (BD Bioscience #345771); anti-CD45RO (BD Bioscience #555493); anti-CD45RA (BD Bioscience #550855); anti-rat IgG (Jackson ImmunoResearch Laboratories #112-116-143); anti-CD19 (BD Bioscience #555413) and anti-Human CCR7 (R&D Systems #MAB197) labeled antibodies in flow cytometric assay.
# Isolated CCR7^−CD45RA^− T Cells were then stimulated on anti-CD3 (eBioscience 16-0037-85; 540 ng/ml) coated 96-well plates at a concentration of 200 000 cells/well in absence or presence of dilution series of anti-Kv1.3 antibodies and ShK positive control (Smartox, #08SHK001). After 72 h, IFN-gamma production was measured with anti-human IFNγ antibody capture in ELISA (BD Bioscence #551221) combined with biotinylated anti-human IFNγ (BD Bioscience, #554550) and streptavidin-HRP (Dakocytomation #P0397) as detection (FIG. 11A-11B).
# In addition, also CD25 expression was measured in flow cytometry, using an anti-CD25 antibody (BD Pharmingen, cat 557138) (FIG. 11C-11D). […]
# [3] = biological target: T1, human Kv1.3; assay: IonWorks Quattro automated perforated patch clamp, Kv1.3-expressing CHL cells; assay type: cell-based; conditions: monovalent Nanobodies, sustained current P1
# From the text: Selected Nanobodies were electrophysiologically characterized on human Kv1.3 on the IonWorks automated perforated-Patch Clamp using Kv1.3-expressing Chinese Hamster Lung (CHL) cells. The procedure for evaluating the modulatory effect of the purified Nanobodies on human Kv1.3 via electrophysiological recordings is given below.
# IonWorks Quattro (Molecular Devices) is a second-generation screening instrument that provides membrane voltage control and provides a direct electrophysiological assay for screening and characterization of compounds. It is an automated, high-throughput planar perforated patch clamp that uses a 384-well PatchPlate™ substrate.
# Extracellular solution contained (in mM): 138 NaCl, 2.7 KCl, 0.9 CaCl2, 0.5 MgCl2, 8 Na2HPO4, and 1.5 KH2PO4 (pH 7.3 with NaOH, and 285-290 mOsmolar). The intracellular solution contained (in mM): 100 K-gluconate, 40 KCl, 3.2 EGTA, 5 HEPES and 3.2 MgCl2 (pH 7.3 with KOH, and 300-315 mOsmolar). These solutions were freshly made, stocked for no longer than a month at 4° C. and filtered prior to use. The selected Nanobodies were directly diluted in extracellular solution to obtain a 3 μM sample solution. […]
# The basic principles of IonWorks automated patch clamp electrophysiology are described by Schroeder et al. (J Biomol Screen 8(1):50-64, 2003). […] In PPC mode, an ensemble average of the current from up to 64 cells per well was recorded. […]
Molecule,IC50 [1] [nM],"inhibition of T-cell stimulation (IFNγ, CD25), in words ([2]; anti-CD3 stimulation)","IC50 ([2]; plate bound anti-CD3, 72 h, read-out: IC50 (in M) IFNγ read out) [nM]","IC50 ([2]; plate bound anti-CD3, read-out: IC50 (in M) CD25 read out) [nM]",IC50 [3] [nM]
B1,13.4,clearly inhibited,30,36,–
B2,84,–,–,–,34

# From patent US11149086B2, “KV1.3 binding immunoglobulins” (Ablynx N.V., priority 2014, dated 2021)
